# B1: HDV Ribozyme (parent)
# chain: GGCCGGCAUGGUCCCAGCCUCCUCGCUGGCGCCGGCUGGGCAACAUUCCGAGGGGACCGUCCCCUCGGUAAUGGCGAAUGGGACCCA
# Variants of: B1
# Test: self-cleavage, relative activity (ratio to wild type); higher = more cleavage; co-transcriptional
row,Variant,self-cleavage
1,C26A A56G,0.957
2,C26A G29C,0.104
3,C26G C33U,0.867
4,C26G U79A,0.692
5,C26G U79C,0.458
6,C26G U79G,0.8
7,C26G G73C,0.492
8,C26G G73A,0.57
9,C26G G80U,0.261
10,C26G G80A,0.789
11,G25U A45G,0.401
12,G25U A45C,0.0831
13,C26A G74A,0.573
14,C26A G53A,0.845
15,G25U C64U,0.113
16,G25U C64G,0.154
17,C26A A70U,1.23
18,C26A C36A,0.143
19,C26A G55A,0.888
20,C26A A71U,0.785
21,C26G G59C,0.87

row,Variant,self-cleavage
1,C26G G59A,0.903
2,C26U A45G,0.831
3,G25U G40A,0.111
4,C26G G68U,0.686
5,C26G G68C,1.07
6,C26G U69G,0.787
7,C26A U69C,0.988
8,C26A U69G,1.15
9,G25U C61G,0.0978
10,G25U C61U,0.163
11,C26A C41A,1.17
12,G25C G52U,0.141
13,C26G G29A,0.208
14,C26G G29U,0.119
15,C26A A87G,0.864
16,C26A A87C,0.944
17,G25C U27A,0.175
18,G25U C41A,0.125
19,C26A G52A,1.06
20,C26A G52U,0.798
21,C26U C58A,1.03

row,Variant,self-cleavage
1,C26U C58G,0.831
2,C26G A87U,0.976
3,G25U G67U,0.305
4,C26A G73U,0.415
5,G25U G35U,0.147
6,C26G U72C,0.862
7,C26G G76A,0.914
8,C26G G76C,0.884
9,C26G C84G,0.615
10,C26G G40U,0.9
11,C26G G40A,0.912
12,C26A C66G,1.15
13,G25U C30U,0.102
14,G25U G68U,0.225
15,G25U G68C,0.0791
16,C26A A78U,0.269
17,C26G C64U,0.99
18,C26G C64A,0.554
19,G25C U37G,0.0519
20,C26A G39A,0.234
21,C26A G39C,0

row,Variant,self-cleavage
1,C26A U79A,0.997
2,C26A U79C,0.469
3,C26G C62G,0.516
4,C26G A51G,0.997
5,C26G A51U,0.95
6,G25U G39U,0.0302
7,G25U G39C,0.0773
8,G25U G39A,0.0963
9,C26G C58A,1.06
10,C26G C58G,0.906
11,C26G G81C,0.499
12,C26G G81A,0.77
13,G25U C26A,0.217
14,C26G U37A,0.213
15,C26A A51C,1.13
16,C26A A51U,1.08
17,G25C G55C,0.106
18,C26A A83U,0.796
19,C26A A83G,0.729
20,C26A A83C,0.752
21,C26A C58U,0.981

# Reference: the RNAGym collection of RNA variant scans (doi:10.7554/elife.80360)
